The source of these data is PMC6262447.

The experiment addresses NADPH-dependent thioredoxin reductase from Methanosarcina mazei strain Gö1 (Methanosarcina mazei strain Gö1). Briefly: SEC; Sephacryl S-300 gel filtration in 10 mM Tris-HCl pH 7.6, 100 mM NaCl, 2 mM 2-mercaptoethanol; column calibrated with the Bio-Rad Gel Filtration Standard; monomer to dimer. (In gel filtration, larger molecules generally elute earlier.)

As to “NADPH-dependent thioredoxin reductase from Methanosarcina mazei strain Gö1 (enzyme)”, the stoichiometry N came out at 2.

By stoichiometry N is commonly meant the number of molecules, sites or subunits per partner or assembly.
